The values below come from patent US20230121197A1, “ANTIBODIES SPECIFICALLY BINDING THE CARBOXYMETHYLATED CATALYTIC SUBUNIT OF PROTEIN PHOSPHATASE 2A” (Medizinische Universität Wien, priority 2020, published 2023).

Test [1] concerns the target T1, PP4c peptides L307, meL307 (Homo sapiens, UniProt P60510).
T1 construct: carboxymethylated versus non-methylated PP2Ac, PP4c and PP6c C-terminal undecapeptides
The test is described as follows: ELISA with PP4c C-terminal undecapeptides. The format is binding. Here is the method:
To further characterize the carboxymethyl-PP2Ac specificity of monoclonal antibody 7C10-C5 ELISAs were performed on carboxymethylated versus non-methylated PP2Ac, PP4c and PP6c C-terminal undecapeptides.
Specifically, flat-bottom Nunc-Immuno Medisorp 96-well ELISA plates (Thermo; 467320) were coated o/n at 4° C. with 50 μl of either a peptide of the sequence ac-HVTRRTPDYFL-OH (L309) (SEQ ID NO:18) at a concentration of 2 μg/ml in TBS (137 mM NaCl (AppliChem, #131659, 2.7 mM KCl (AppliChem, #131494), 24.8 mM Tris (AppliChem, #A1086), pH 7.4 with HCl), a peptide of the sequence ac-HVTRRTPDYFL-CH3 (meL309) (SEQ ID NO:18) 2 μg/ml in TBS, with a peptide of the sequence (ac-PSKKPVADYFL (L307) (SEQ ID NO:20) at a concentration of 2 μg/ml in TBS or with a peptide of the sequence ac-PSKKPVADYFL-CH3 (meL307) (SEQ ID NO:20) at a concentration of 2 μg/ml in TBS, with a peptide of the sequence ac-IPPRTTTPYFL (L305) (SEQ ID NO:22) at a concentration of 2 μg/ml in TBS or with a peptide of the sequence ac-IPPRTTTPYFL-CH3 (meL305) (SEQ ID NO:22) at a concentration of 2 μg/ml in TBS. […] Bound antibodies were detected colorimetrically by addition of 50 μl of 33 μg/ml […] (TMB) (Sigma, T2885) in 0.1 M sodium acetate pH 6.0 and 0.01% H2O2 (Sigma, H1009). […] The results from 560 nm read were subtracted from the 450 nm read.

Test [2] has as its target T2, PP2Ac C-terminal peptide meL309, ac-HVTRRTPDYFL-CH3 (α-carboxymethylated) (human, SMILES …).
T2 construct: also called Y307-meL309; mePP2Ac
T2 peptide: Ac-HVTRRTPDYFL-OMe
Description: ELISA (FIG. 4). On the procedure: Nunc Medisorp 96-well ELISA flat-bottom plates were coated with peptides L309 (ac-[…]) (SEQ ID NO:18), meL309 (ac-[…]-CH₃) (SEQ ID NO:18) or amL309 (ac-[…]-NH₂) (SEQ ID NO:18) at 2 μg/ml in TBS at 4° C. over-night. After washing once with TBS, the wells were incubated with 2% BSA in TBS for 1 h at RT. After washing once with TBS, the wells were incubated with single clone hybridoma cell culture supernatant clone 7C10-C5 1:50 (˜1 μg/ml) in 1% BSA/TBS for 1 h at RT. After washing twice with TBS, wells were incubated with anti-mouse HRP-coupled secondary antibody for 1 h at RT, followed by washing 3× in PBS. Bound antibodies were detected by colorimetric reaction with 3,3′,5,5′-Tetramethylbenzidine as substrate, and absorbance was measured at 450 nm. Values were normalized to meL309 which was set to 1. Average and standard deviation of N=8 experiments are shown. Statistical significance was assessed using ANOVA followed by Tukey's HSD as a post-hoc test. P values are indicated with *, **, ***, which correspond to values of <0.05, <0.01, and <0.001. […]
In general terms: In an ELISA, binding on a coated surface is turned into a signal by an enzyme label.

B1: 7C10-C5: α-carboxymethylation specific mouse monoclonal IgG1 antibody from single clone hybridoma 7C10-C5 (DSM ACC3350) (antibody)
heavy: MYRMQLLSCIALSLALVTNSDVQLQESGPGLVKPSQSLSLTCSVTGYSITSGYYWNWIRQFPGNKLEWMGYISYDGSNNYNPSLKNRISITRDTSKNQFFLKLNSVTTEDTATYYCAGRFAYWGQGTLVTVSAAKTTAPSVYPLAPVCGDTTGSSVTLGCLVKGYFPEPVTLTWNSGSLSSGVHTFPAVLQSDLYTLSSSVTVTSSTWPSQSITCNVAHPASSTKVDKKIEPRGPTIKPCPPCKCPAPNLLGGPSVFIFPPKIKDVLMISLSPIVTCVVVDVSEDDPDVQISWFVNNVEVHTAQTQTHREDYNSTLRVVSALPIQHQDWMSGKEFKCKVNNKDLPAPIERTISKPKGSVRAPQVYVLPPPEEEMTKKQVTLTCMVTDFMPEDIYVEWTNNGKTELNYKNTEPVLDSDGSYFMYSKLRVEKKNWVERNSYSCSVVHEGLHNHHTTKSFSRTPGK
light: MDMRVPAQLLGLLLLWLSGARCDVLMTQTPLSLPVSLGDQASISCRSSQSIVHSNGNTYLEWYLQKPGQSPKLLIYKVSNRFSGVPDRFSGSGSGTDFTLKINRVEAEDLGVYYCFQGSHVPWTFGGGTKLEIKADAAPTVSIFPPSSEQLTSGGASVVCFLNNFYPKDINVKWKIDGSERQNGVLNSWTDQDSKDSTYSMSSTLTLTKDEYERHNSYTCEATHKTSTSPIVKSFNRNEC
modifications: Amino acid sequence of the recombinant 7C10-C5 heavy chain; Amino acid sequence of the recombinant 7C10-C5 light chain
In the case of B1, in test [1], the “carboxymethylated versus non-carboxymethylated PP4c peptide signal” value is “No significant difference”.

B2: 7C10-C5 monoclonal antibody (antibody, V domains shown)
VH: DVQLQESGPGLVKPSQSLSLTCSVTGYSITSGYYWNWIRQFPGNKLEWMGYISYDGSNNYNPSLKNRISITRDTSKNQFFLKLNSVTTEDTATYYCAGRFAYWGQGTLVTVSA
VL: DVLMTQTPLSLPVSLGDQASISCRSSQSIVHSNGNTYLEWYLQKPGQSPKLLIYKVSNRFSGVPDRFSGSGSGTDFTLKINRVEAEDLGVYYCFQGSHVPWTFGGGTKLEIK
notes: Used as hybridoma culture supernatant (ELISA, Western blot, IHC) or at 50 µg/mL (SPR); also called 7C10 X63; clone 7C10-C5
Regarding B2, in test [2], the “fold stronger binding than to the amidated C-terminal part of PP2Ac (ELISA)” value is 6.15 fold.
